Measurements from PMC5797217, “UFD-2 is an adaptor-assisted E3 ligase targeting unfolded proteins” (Nature Communications, 2018).
One block for each binder: values may come before it.

Assays:
[1] = biological target: the molecule itself; assay: crystal structure; crystal form UNC-45_(717), space group P6_(1)22, 3.8 Å; molecules form filaments in the crystal lattice
[2] = biological target: T1, UNC-45 full-length, His6-tagged (C. elegans, UniProt G5EG62 1-961); assay: pull-down; three proteins: His6-tagged UNC-45 pre-incubated with myosin (MHC-B motor domain) 60 min 27 °C, then with Strep-UFD-2 60 min 30 °C; Strep-Tactin beads; 5 µM protein; 20 mM Tris pH 7.5, 50 mM NaCl; Coomassie; settings: both partners purified
T1 construct: UNC-45, C. elegans, full-length (961 residues by the printed limits of the deletion constructs); also called UNC-45-His6; wild-type, full-length protein; source: E. coli BL21-DE3-RIL, purified (NiNTA, SEC); not shown: His6, C-terminal, kept
T1 sequence (looked up): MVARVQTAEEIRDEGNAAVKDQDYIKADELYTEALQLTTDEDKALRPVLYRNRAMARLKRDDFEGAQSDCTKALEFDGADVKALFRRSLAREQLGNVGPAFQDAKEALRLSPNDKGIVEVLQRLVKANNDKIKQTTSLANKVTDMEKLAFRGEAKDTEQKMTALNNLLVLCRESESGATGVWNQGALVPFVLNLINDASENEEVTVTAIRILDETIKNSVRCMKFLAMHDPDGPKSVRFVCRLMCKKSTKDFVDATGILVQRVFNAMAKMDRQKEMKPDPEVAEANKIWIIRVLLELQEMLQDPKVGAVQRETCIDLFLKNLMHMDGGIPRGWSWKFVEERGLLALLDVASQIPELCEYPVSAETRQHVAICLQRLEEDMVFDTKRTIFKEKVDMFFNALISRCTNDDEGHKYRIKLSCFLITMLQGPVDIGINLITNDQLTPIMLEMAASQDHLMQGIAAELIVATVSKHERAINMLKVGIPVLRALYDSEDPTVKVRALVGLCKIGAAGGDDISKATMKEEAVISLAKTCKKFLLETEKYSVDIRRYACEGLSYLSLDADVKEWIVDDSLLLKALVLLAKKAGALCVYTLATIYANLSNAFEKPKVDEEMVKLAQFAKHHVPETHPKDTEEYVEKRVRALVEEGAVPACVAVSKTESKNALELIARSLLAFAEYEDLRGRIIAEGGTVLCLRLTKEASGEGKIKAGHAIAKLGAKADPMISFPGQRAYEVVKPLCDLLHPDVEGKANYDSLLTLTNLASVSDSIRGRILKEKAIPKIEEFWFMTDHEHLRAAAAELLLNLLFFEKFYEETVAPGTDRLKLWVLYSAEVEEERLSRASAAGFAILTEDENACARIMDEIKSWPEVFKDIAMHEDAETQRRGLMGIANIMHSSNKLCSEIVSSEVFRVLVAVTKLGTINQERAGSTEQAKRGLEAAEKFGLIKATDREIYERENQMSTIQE

B1: UNC-45 wild type, crystallised (crystal form UNC-45_(717)) (natural protein, C. elegans, UniProt G5EG62 1-961, looked up)
chain: T1 sequence (looked up)
notes: UNC-45, C. elegans, wild-type full-length protein used for crystallisation
binding result [1]: binds

binding result [2]: binds
B2: C. elegans MHC-B motor domain (1-790), His6-tagged (domain or fragment, UniProt P02566 1-790, looked up)
chain: MEHEKDPGWQYLRRTREQVLEDQSKPYDSKKNVWIPDPEEGYLAGEITATKGDQVTIVTARGNEVTLKKELVQEMNPPKFEKTEDMSNLSFLNDASVLHNLRSRYAAMLIYTYSGLFCVVINPYKRLPIYTDSCARMFMGKRKTEMPPHLFAVSDEAYRNMLQDHENQSMLITGESGAGKTENTKKVICYFAAVGASQQEGGAEVDPNKKKVTLEDQIVQTNPVLEAFGNAKTVRNNNSSRFGKFIRIHFNKHGRLASCDIEHYLLEKSRVIRQAPGERCYHIFYQIYSDFRPELKKELLLDLPIKDYWFVAQAELIIDGIDDVEEFQLTDEAFDILNFSAVEKQDCYRLMSAHMHMGNMKFKQRPREEQAEPDGTDEAEKASNMYGIGCEEFLKALTKPRVKVGTEWVSKGQNCEQVNWAVGAMAKGLYSRVFNWLVKKCNLTLDQKGIDRDYFIGVLDIAGFEIFDFNSFEQLWINFVNEKLQQFFNHHMFVLEQEEYAREGIQWVFIDFGLDLQACIELIEKPLGIISMLDEECIVPKATDLTLASKLVDQHLGKHPNFEKPKPPKGKQGEAHFAMRHYAGTVRYNCLNWLEKNKDPLNDTVVSAMKQSKGNDLLVEIWQDYTTQEEAAAKAKEGGGGGKKKGKSGSFMTVSMLYRESLNNLMTMLNKTHPHFIRCIIPNEKKQSGMIDAALVLNQLTCNGVLEGIRICRKGFPNRTLHPDFVQRYAILAAKEAKSDDDKKKCAEAIMSKLVNDGSLSEEMFRIGLTKVFFKAGVLAHLEDIRDEKL
notes: Myosin heavy chain B (MHC-B, UNC-54), C. elegans muscle myosin, motor domain residues 1-790, cloned from cDNA into pACEBac1; also called myosin; MHC-B head domain; source: High Five insect cells, purified (NiNTA, Streptactin wash fractions, SEC) or co-purified with UNC-45; not shown: His6, C-terminal, kept
